The source of these data is patent US20060183119A1, “Method for determining predisposition to a physiological reaction in a patient” (UNIVERSITE LAVAL, priority 2002, published 2006).

Numbering of substitutions follows the chain as printed. Names and notes keep the numbering of the source.

One data set addresses T1, human UGT1A9*2 (Homo sapiens, UniProt O60656, C3Y).
T1 sequence (O60656 26-530): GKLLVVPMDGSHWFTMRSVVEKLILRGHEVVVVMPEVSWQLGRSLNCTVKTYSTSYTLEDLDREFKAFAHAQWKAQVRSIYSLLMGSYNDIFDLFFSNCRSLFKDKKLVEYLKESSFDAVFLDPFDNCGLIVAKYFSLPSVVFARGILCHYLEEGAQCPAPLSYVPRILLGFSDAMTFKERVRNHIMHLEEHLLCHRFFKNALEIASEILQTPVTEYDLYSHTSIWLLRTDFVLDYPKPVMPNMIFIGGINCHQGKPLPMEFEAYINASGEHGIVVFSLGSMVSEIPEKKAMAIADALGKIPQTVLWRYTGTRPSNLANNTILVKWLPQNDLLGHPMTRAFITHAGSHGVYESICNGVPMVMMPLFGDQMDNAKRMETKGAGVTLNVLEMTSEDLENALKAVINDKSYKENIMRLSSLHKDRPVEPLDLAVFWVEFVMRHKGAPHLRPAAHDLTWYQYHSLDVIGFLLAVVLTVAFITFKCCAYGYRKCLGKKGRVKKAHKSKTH
As to the kind of experiment: Glucuronidation by microsomes of HEK-293 cells stably expressing UGT1A9*2. To be noted: 5 μM and 200 μM of flavopiridol. The method, then:
(§1) Microsomal fractions from HEK-293 cells stably expressing human UGT1A9*1, UGT1A9*2 and UGT1A9*3 were used in enzymatic assays. Reactions (100 μl volume) contained 50 mM Tris-HCl, pH 7.3, 10 mM MgCl2, 100 μg/mL phosphatidylcholine, 1 mM UDP-glucuronic acid, 40 to 60 μg of membrane protein. […] Human liver microsome were incubated in the same condition for control. Reaction was stopped by the addition of 200 μL MeOH+1% HCl 2N, followed by centrifugation at 14000 rpm for 10 minutes. Supernatant was filtered through a 0.22 μm filter and 100 μL of water was added. For SN-38 and SN-38-glucuronide detection, 10 μL samples were injected on a liquid chromatographic system coupled to a fluorescence detector. Time-course experiments were realized to determine the linearity of the glucuronidation reaction.
(§2) A liquid chromatographic method was developed to quantify SN-38 glucuronidation of UGT cell line-derived microsomes and human liver microsomes. Samples were analyzed using high performance liquid chromatography (Alliance 2695, Waters, Milford, Mass.). […] At a constant flow rate (0.7 ml/min), a linear gradient from 20 to 65% B was run over 3 min, held 0.8 min and a second gradient until 95% of B was run over 2 min and then re-equilibrated to 20% B over 2 min. The effluent from the HPLC system (Alliance 2695) was connected directly to a fluorescence detector (Waters, Milford, Mass.) using an excitation wavelength of […] and an emission of 460 nm. […] Determination of the glucuronidation rates obtained with other substrates was performed as currently known in the art.
(§3) Microsomal fractions from HEK293 (40 to 60 μg) were added to a reaction mixture (100 μL) containing 50 mM Tris-HCl, pH 7.3, 10 mM MgCl2, 100 μg/mL phosphatidylcholine and 2 mM UDP-glucuronic acid. […] Commercially available human liver microsomes (Human Cell Culture Center Inc., Laurel, Md.) were incubated in the same conditions for all experiments. Time-course experiments were performed to determine the linearity of the glucuronidation reaction. For the determination of Vmax and Km. HEK293 cells stably expressing UGT1A9 enzymes were incubated in the presence of various concentrations of SN-38 ranging from 0.1 to 200 μM and incubated for 30 min as described above whereas UGT1A7 membranes preparations were incubated for 3 hours. […] Reactions with SN-38 were stopped by the addition of 200 μL MeOH+1% HCl 2N, followed by centrifugation at 14000×g for 10 minutes. The supernatants were filtered through a 0.22 μm membrane and 100 μL of water was added to the filtrate. For the detection of SN-38 and its glucuronide (SN-38G), 10 μL samples were injected in a liquid chromatographic system (HPLC) coupled to fluorescence detector as described below.
(§4) A HPLC method was developed to quantify the rates of SN-38 glucuronidation from the various microsomal fractions under study. The HPLC system used was an Alliance 2695 (Waters, Milford, Mass.) equipped with a 50×3.2 mm Colombus C18 column (Phenomenex, Torrance, Calif.). […] Then a second gradient ranging from 65% to 95% solvent B was generated during the following 2 min. Finally, the column was re-equilibrated to 20% solvent B for 2 min. The column was connected to a fluorescence detector model 474 (Waters, Milford, Mass.) and the molecules were excited at a wavelength of 370 nm and an emission of 425 nm.

The target in a further data set is T2, human UGT1A9*3 (Homo sapiens, UniProt O60656, M33T).
T2 sequence (O60656 26-530 M33T): T1 sequence (O60656 26-530) with M8T
Description: Glucuronidation by microsomes of HEK-293 cells stably expressing UGT1A9*3. The method, then:
as §1, §2, §3, §4

Data set [1] concerns COc1c(C)c2c(c(O)c1C/C=C(\C)CCC(=O)O)C(=O)OC2. Description: cells, lysate or membranes named. To be noted: other: MPA glucuronidation; pH 7.3; 37.0 °C.
Substrate in data set [2]: COc1c(C)c2c(c(O)c1C/C=C(\C)CCC(=O)O)C(=O)OC2
As to the kind of experiment: cells, lysate or membranes named. To be noted: other: MPA glucuronidation; pH 7.3; 37.0 °C. This is another data set of the same source.

For the molecule `CN1CC[C@H](c2c(O)cc(O)c3c(=O)cc(-c4ccccc4Cl)oc23)[C@H](O)C1` [Flavopiridol, flavopiridol], the “formation of flavopiridol-G compared to the UGT1A9*1 allele” value was “not statistically different” on human UGT1A9*2; “not statistically different” on human UGT1A9*3 (5 μM and 200 μM of flavopiridol).

On to `COc1c(C)c2c(c(O)c1C/C=C(\C)CCC(=O)O)C(=O)OC2` [MPA, mycophenolic acid], for which, at human UGT1A9*3 (versus UGT1A9*1), the “effect of codon 33 variation on affinity of the protein for the substrate (in words)” value is recorded as “dramatically reduced”.

For the molecule human UGT1A9*2 (Homo sapiens; C3Y), in data set [1], the Km amounted to 303 µM and the Vmax was found to be 0.0084 µmol/min/mg.

B1: human UGT1A9*1 (Homo sapiens) (protein)
chain: T1 sequence (O60656 26-530)
In the case of B1, in data set [2], the Km is 495 µM and the Vmax was found to be 0.00941 µmol/min/mg.

B2: human UGT1A9*3 (Homo sapiens; M33T) (protein)
chain: T1 sequence (O60656 26-530) with M8T
As for B2, in data set [2], the Km is 3225 µM and the Vmax was determined as 0.0141 µmol/min/mg.

As a reminder, the Km is the substrate concentration at which the rate is half of its maximum. A word on the Vmax: it is the top rate of the reaction or transport when substrate is in excess.
